Assay results published in US20210347913A1 (CRISPR THERAPEUTICS, published 2021).

T1: PTK7 on PTK7 positive cell line SaOS-2 (osteosarcoma) (UniProt Q13308 31-1070, limits assumed)
T1 sequence (looked up): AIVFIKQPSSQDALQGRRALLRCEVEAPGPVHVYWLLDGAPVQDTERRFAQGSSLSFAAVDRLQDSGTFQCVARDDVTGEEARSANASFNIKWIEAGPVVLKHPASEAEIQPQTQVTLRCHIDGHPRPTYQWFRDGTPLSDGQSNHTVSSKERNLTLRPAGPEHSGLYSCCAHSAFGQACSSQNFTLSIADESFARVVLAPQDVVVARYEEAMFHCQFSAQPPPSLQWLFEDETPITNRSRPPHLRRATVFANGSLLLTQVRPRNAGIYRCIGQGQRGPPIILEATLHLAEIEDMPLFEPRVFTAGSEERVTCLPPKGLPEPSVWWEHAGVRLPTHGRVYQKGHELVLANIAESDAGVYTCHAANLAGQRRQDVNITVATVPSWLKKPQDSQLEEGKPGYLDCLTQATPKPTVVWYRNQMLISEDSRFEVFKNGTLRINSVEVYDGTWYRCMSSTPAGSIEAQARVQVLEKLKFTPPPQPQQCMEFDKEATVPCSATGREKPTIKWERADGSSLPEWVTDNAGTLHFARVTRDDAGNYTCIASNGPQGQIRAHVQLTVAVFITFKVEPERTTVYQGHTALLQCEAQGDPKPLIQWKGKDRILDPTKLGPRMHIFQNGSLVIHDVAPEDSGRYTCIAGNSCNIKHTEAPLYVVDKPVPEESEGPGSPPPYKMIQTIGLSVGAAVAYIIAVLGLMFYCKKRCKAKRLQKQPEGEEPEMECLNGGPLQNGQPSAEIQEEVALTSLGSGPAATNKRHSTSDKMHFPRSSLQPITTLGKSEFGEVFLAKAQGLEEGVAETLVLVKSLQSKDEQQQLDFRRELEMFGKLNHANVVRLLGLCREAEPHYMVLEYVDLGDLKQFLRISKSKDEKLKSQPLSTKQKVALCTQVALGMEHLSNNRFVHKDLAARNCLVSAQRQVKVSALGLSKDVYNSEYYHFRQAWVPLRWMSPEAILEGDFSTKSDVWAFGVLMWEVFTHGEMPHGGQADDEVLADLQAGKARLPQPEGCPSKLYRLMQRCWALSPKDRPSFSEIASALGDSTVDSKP

T2: recombinant human PTK7.Fc (R and D Systems, catalog #9799-TK) (human, UniProt Q13308 31-704, limits assumed)
T2 construct: Bought reagent; also called soluble recombinant human PTK7.Fc; soluble antigen PTK7; not shown: Fc part of the bought fusion (detected with anti-human Fc)
T2 sequence (looked up): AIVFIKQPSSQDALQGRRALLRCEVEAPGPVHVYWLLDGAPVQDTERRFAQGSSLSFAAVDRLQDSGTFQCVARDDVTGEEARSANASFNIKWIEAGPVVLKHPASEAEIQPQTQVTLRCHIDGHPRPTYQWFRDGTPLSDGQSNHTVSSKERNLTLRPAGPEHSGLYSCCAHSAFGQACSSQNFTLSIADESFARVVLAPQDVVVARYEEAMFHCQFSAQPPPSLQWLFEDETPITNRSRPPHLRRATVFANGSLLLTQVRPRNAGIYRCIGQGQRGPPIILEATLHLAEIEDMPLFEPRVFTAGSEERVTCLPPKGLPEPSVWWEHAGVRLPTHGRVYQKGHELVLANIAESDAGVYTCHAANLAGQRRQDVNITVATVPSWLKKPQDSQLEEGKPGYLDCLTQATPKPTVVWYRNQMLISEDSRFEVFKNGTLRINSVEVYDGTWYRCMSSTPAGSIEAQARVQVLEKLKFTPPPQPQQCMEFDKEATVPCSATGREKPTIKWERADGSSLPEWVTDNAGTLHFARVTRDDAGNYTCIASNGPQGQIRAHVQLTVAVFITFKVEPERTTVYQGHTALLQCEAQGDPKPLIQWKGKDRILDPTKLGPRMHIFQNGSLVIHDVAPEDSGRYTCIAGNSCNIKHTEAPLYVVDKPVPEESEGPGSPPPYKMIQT

B1: CTX181.M8 (other)
chain: QGWCTIPSSMSIRLCGSSGGSGGSGGSGGGPLGLAGGSSGQVQLVESGGGVVQPGRSLRLSCAASGFTFSSYGMHWVRQAPGKGLEWVAVIWDDGSNKYYVDSVKGRFTISRDNSKNTLYLQMNSLRAEDTAVYYCARDDYYGSGSFNSYYGTDVWGQGTTVTVSSGGGGSGGGGSGGGGSEIVLTQSPATLSLSPGERATLSCRASQSVSIYLAWYQQKPGQAPRLLIYDASNRATGIPARFSGSGSGTDFTLTISSLEPEDFAVYYCQQRSNWPPFTFGPGTKVDIKSAAAFVPVFLPAKPTTTPAPRPPTPAPTIASQPLSLRPEACRPAAGGAVHTRGLDFACDIYIWAPLAGTCGVLLLSLVITLYCNHRNRSKRSRLLHSDYMNMTPRRPGPTRKHYQPYAPPRDFAAYRSRVKFSRSADAPAYQQGQNQLYNELNLGRREEYDVLDKRRGRDPEMGGKPRRKNPQEGLYNELQKDKMAEAYSEIGMKGERRRGKGHDGLYQGLSTATKDTYDALHMQALPPR
notes: Masked chimeric antigen receptor on the surface of TRAC-/B2M- human T cells; entry without signal peptide
B2: CTX181.M14 (other)
chain: QGCTHVAQWAIKAFCGSSGGSGGSGGSGGGPLGLAGGSSGQVQLVESGGGVVQPGRSLRLSCAASGFTFSSYGMHWVRQAPGKGLEWVAVIWDDGSNKYYVDSVKGRFTISRDNSKNTLYLQMNSLRAEDTAVYYCARDDYYGSGSFNSYYGTDVWGQGTTVTVSSGGGGSGGGGSGGGGSEIVLTQSPATLSLSPGERATLSCRASQSVSIYLAWYQQKPGQAPRLLIYDASNRATGIPARFSGSGSGTDFTLTISSLEPEDFAVYYCQQRSNWPPFTFGPGTKVDIKSAAAFVPVFLPAKPTTTPAPRPPTPAPTIASQPLSLRPEACRPAAGGAVHTRGLDFACDIYIWAPLAGTCGVLLLSLVITLYCNHRNRSKRSRLLHSDYMNMTPRRPGPTRKHYQPYAPPRDFAAYRSRVKFSRSADAPAYQQGQNQLYNELNLGRREEYDVLDKRRGRDPEMGGKPRRKNPQEGLYNELQKDKMAEAYSEIGMKGERRRGKGHDGLYQGLSTATKDTYDALHMQALPPR
notes: as for B1
B3: CTX181.M13 (other)
chain: QGCTYPPRFHMHWLCGSSGGSGGSGGSGGGPLGLAGGSSGQVQLVESGGGVVQPGRSLRLSCAASGFTFSSYGMHWVRQAPGKGLEWVAVIWDDGSNKYYVDSVKGRFTISRDNSKNTLYLQMNSLRAEDTAVYYCARDDYYGSGSFNSYYGTDVWGQGTTVTVSSGGGGSGGGGSGGGGSEIVLTQSPATLSLSPGERATLSCRASQSVSIYLAWYQQKPGQAPRLLIYDASNRATGIPARFSGSGSGTDFTLTISSLEPEDFAVYYCQQRSNWPPFTFGPGTKVDIKSAAAFVPVFLPAKPTTTPAPRPPTPAPTIASQPLSLRPEACRPAAGGAVHTRGLDFACDIYIWAPLAGTCGVLLLSLVITLYCNHRNRSKRSRLLHSDYMNMTPRRPGPTRKHYQPYAPPRDFAAYRSRVKFSRSADAPAYQQGQNQLYNELNLGRREEYDVLDKRRGRDPEMGGKPRRKNPQEGLYNELQKDKMAEAYSEIGMKGERRRGKGHDGLYQGLSTATKDTYDALHMQALPPR
notes: as for B1
B4: CTX181.M11 (other)
chain: QGCTMPSHAVASFLCGSSGGSGGSGGSGGGPLGLAGGSSGQVQLVESGGGVVQPGRSLRLSCAASGFTFSSYGMHWVRQAPGKGLEWVAVIWDDGSNKYYVDSVKGRFTISRDNSKNTLYLQMNSLRAEDTAVYYCARDDYYGSGSFNSYYGTDVWGQGTTVTVSSGGGGSGGGGSGGGGSEIVLTQSPATLSLSPGERATLSCRASQSVSIYLAWYQQKPGQAPRLLIYDASNRATGIPARFSGSGSGTDFTLTISSLEPEDFAVYYCQQRSNWPPFTFGPGTKVDIKSAAAFVPVFLPAKPTTTPAPRPPTPAPTIASQPLSLRPEACRPAAGGAVHTRGLDFACDIYIWAPLAGTCGVLLLSLVITLYCNHRNRSKRSRLLHSDYMNMTPRRPGPTRKHYQPYAPPRDFAAYRSRVKFSRSADAPAYQQGQNQLYNELNLGRREEYDVLDKRRGRDPEMGGKPRRKNPQEGLYNELQKDKMAEAYSEIGMKGERRRGKGHDGLYQGLSTATKDTYDALHMQALPPR
notes: as for B1
B5: CTX181.M10 (other)
chain: QGCYIGLRMVPCFHMGSSGGSGGSGGSGGGPLGLAGGSSGQVQLVESGGGVVQPGRSLRLSCAASGFTFSSYGMHWVRQAPGKGLEWVAVIWDDGSNKYYVDSVKGRFTISRDNSKNTLYLQMNSLRAEDTAVYYCARDDYYGSGSFNSYYGTDVWGQGTTVTVSSGGGGSGGGGSGGGGSEIVLTQSPATLSLSPGERATLSCRASQSVSIYLAWYQQKPGQAPRLLIYDASNRATGIPARFSGSGSGTDFTLTISSLEPEDFAVYYCQQRSNWPPFTFGPGTKVDIKSAAAFVPVFLPAKPTTTPAPRPPTPAPTIASQPLSLRPEACRPAAGGAVHTRGLDFACDIYIWAPLAGTCGVLLLSLVITLYCNHRNRSKRSRLLHSDYMNMTPRRPGPTRKHYQPYAPPRDFAAYRSRVKFSRSADAPAYQQGQNQLYNELNLGRREEYDVLDKRRGRDPEMGGKPRRKNPQEGLYNELQKDKMAEAYSEIGMKGERRRGKGHDGLYQGLSTATKDTYDALHMQALPPR
notes: as for B1
B6: mask peptide P2 (peptide)
peptide: HEEVHMRPNKLSLTWAYTGPQLR
notes: Found by phage display (Screen 1); fused through a cleavable linker in the masked constructs
B7: CTX181.P1 (other)
chain: EVAPGKRWFYNHVKQVPHLVGSSGGSGGSGGSGGGPLGLAGGSSGQVQLVESGGGVVQPGRSLRLSCAASGFTFSSYGMHWVRQAPGKGLEWVAVIWDDGSNKYYVDSVKGRFTISRDNSKNTLYLQMNSLRAEDTAVYYCARDDYYGSGSFNSYYGTDVWGQGTTVTVSSGGGGSGGGGSGGGGSEIVLTQSPATLSLSPGERATLSCRASQSVSIYLAWYQQKPGQAPRLLIYDASNRATGIPARFSGSGSGTDFTLTISSLEPEDFAVYYCQQRSNWPPFTFGPGTKVDIKSAAAFVPVFLPAKPTTTPAPRPPTPAPTIASQPLSLRPEACRPAAGGAVHTRGLDFACDIYIWAPLAGTCGVLLLSLVITLYCNHRNRKRGRKKLLYIFKQPFMRPVQTTQEEDGCSCRFPEEEEGGCELRVKFSRSADAPAYQQGQNQLYNELNLGRREEYDVLDKRRGRDPEMGGKPRRKNPQEGLYNELQKDKMAEAYSEIGMKGERRRGKGHDGLYQGLSTATKDTYDALHMQALPPR
notes: Masked chimeric antigen receptor on the surface of TRAC-/B2M- human T cells; entry without signal peptide; also called masked anti-PTK7 CAR P1

What was measured:
[1] = biological target: T1, PTK7 on PTK7 positive cell line SaOS-2 …; experiment: cell-based or functional assay
[2] = biological target: T1, PTK7 on PTK7 positive cell line SaOS-2 …; experiment: cell-based or functional assay; remark: listed apart in the source
[3] = biological target: T2, recombinant human PTK7.Fc (R and D …); experiment: flow cytometry, percent of CAR T cells positive for 10 ug/mL PTK7.Fc
Method: In addition to detecting surface CAR expression, the ability of the CAR T cells and masked CAR T cells to detect target antigen was also determined. Live CAR T cells were gated by their forward scatter (FSC) and side scatter (SSC) profiles, and with DAPI dye (Invitrogen, catalog #: D3571). The cells were then stained with 10 μg/mL recombinant human PTK7.Fc (R and D Systems, catalog #9799-TK Lot DHMCO219041) as described above in Example 3, and with mouse anti-human.Fc conjugated to APC (Biolegend cat #409305) as secondary antibody for detection (FIG. 3).

[4] = biological target: T3, anti-PTK7 antibody Ab181; experiment: phage display selection of peptide binders of Ab181 (Screen 1, X15/X19 library)
T3 construct: Unmasked parent IgG1kappa; also called Ab181 IgG1kappa

| Binder | % Cell killing at E:T = 1:0.5 [1] [%] | % Cell killing at E:T = 1:1 [1] [%] | IFNγ (pg/mL) at E:T = 1:0.5 [2] [pg/mL] | IFNγ (pg/mL) at E:T = 1:1 [2] [pg/mL] | % Antigen detection [3] [%] | binding result [4] |
| --- | --- | --- | --- | --- | --- | --- |
| B1 | 15.4 | 3.9 | 400 | 443 | 20.2 | – |
| B2 | 52.8 | 29.5 | 1760 | 1930 | 36.2 | – |
| B3 | 68.6 | 41.3 | 4860 | 6170 | 37.5 | – |
| B4 | 20.1 | 12.7 | 884 | 887 | 30.3 | – |
| B5 | 32.7 | 25.8 | 2110 | 1880 | 28 | – |
| B6 | – | – | – | – | – | binds |
| EVAPGKRWFYNHVKQVPHLV (Found by phage display (Screen 1)) [mask peptide P1] | – | – | – | – | – | binds |
| B7 | 92.7 | 79.1 | 13600 | 20500 | 42.7 | – |
